Test results from paper PMC3625974 (Structure (London, England : 1993), 2012).

Assays:
[1] = molecular target: TorT (vpTorT) (Vibrio parahaemolyticus, UniProt Q87ID2); test: ITC; type: binding
[2] = molecular target: TorS (Escherichia coli) (UniProt P39453); conditions: cited from earlier work
[3] = molecular target: isolated vpTorSS sensor domain, GSGS-TorS(51-323) (V. parahaemolyticus); test: AUC
[4] = molecular target: vpTorSS-TorSS dimer: two copies of vpTorSS (51-323) fused via a flexible linker [LN(SG)10A3] (V. parahaemolyticus); test: AUC
[5] = molecular target: isolated vpTorSS sensor domain, GSGS-TorS(51-323) (V. parahaemolyticus); test: native gel or EMSA + SEC

Chain of TorT (P38683 19-342): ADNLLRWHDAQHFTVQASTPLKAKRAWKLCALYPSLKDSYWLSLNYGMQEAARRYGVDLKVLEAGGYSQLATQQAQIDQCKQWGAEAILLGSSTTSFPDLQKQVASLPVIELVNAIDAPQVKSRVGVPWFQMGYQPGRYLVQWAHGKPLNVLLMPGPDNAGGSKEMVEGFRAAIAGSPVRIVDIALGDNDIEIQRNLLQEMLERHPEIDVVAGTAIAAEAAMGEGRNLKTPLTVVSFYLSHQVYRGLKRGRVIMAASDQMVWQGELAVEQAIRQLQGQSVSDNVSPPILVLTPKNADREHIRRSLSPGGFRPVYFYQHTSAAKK

Q: For C[N+](C)(C)[O-] [TMAO, trimethylamine-N-oxide], which Kd [1] is on record?
A: 1.36 µM

Q: With TorT (from UniProt P38683) as the compound, how does the Kd [2] read?
A: 0.01 µM

Q: With “periplasmic binding protein TorT from V. parahaemolyticus, GSGS-TorT(29-329) (natural protein)” as the compound, how does the stoichiometry N (TorT per TorSS (2:2)) [3] read?
A: 1

Q: And the Kd [4]?
A: 1.79 µM

Q: What about the stoichiometry N (TorT per TorSS (2:2)) [5] of the same compound?
A: 1
